We go through 15 sequences from a protein production outcome set (Wang et al. 2014).

This data set can be described thus: label from the status in PepcDB records.
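Further: failed if final PepcDB status was selected cloned or expressed and not failed if soluble or beyond.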

As to “MKKATIAATAGIAVTAFAAPTIASASTVVVEAGDTLWGIAQSKGTTVDAIKKANNLTTDKIVPGQKLQVNNEVAAAEKTEKSVSATWLNVRSGAGVDNSIITSIKGGTKVTVETTESNGWHKITYNDGKTGFVNGKYLTDKAVSTPVAPTQEVKKETTTQQAAPAAETKTEVKQTTQATTPAPKVAETKETPVVDQNATTHAVKSGDTIWALSVKYGVSVQDIMSWNNLSSSSIYVGQKLAIKQTANTATPKAEVKTEAPAAEKQAAPVVKENTNTNTATTEKKETATQQQTAPKAPTEAAKPAPAPSTNTNANKTNTNTNTNTNTNNTNTNTPSKNTNTNSNTNTNTNSNTNANQGSSNNNSNSSASAIIAEAQKHLGKAYSWGGNGPTTFDCSGYTKYVFAKAGISLPRTSGAQYASTTRISESQAKPGDLVFFDYGSGISHVGIYVGNGQMINAQDNGVKYDNIHGSGWGKYLVGFGRV”, the protein production result is “failed”.

On to “MKKAVVVFSGGQDSTTCLVQALKEFDEVHAITFDYGQRHKLEIEVAQKIAKDLGVKAHKVMDVGLLNELAISSLTRDDIPVSHELQENGLPNSFVPGRNILFLTLAGIYAYQIGADTVITGVCETDFSGYPDCRDDFVKSMNTALVKGMDRALTIKTPLMWLNKAETWALADQYNALQLVRENTLTCYNGIIGDGCGDCPSCDLRKAGLDEYLNNKDAVMKSLVQKQESEGL”, for which the protein production entry is “failed”.

As for “MKKDSTIAFTGGRILTMDSEQKYAEAVVIRGDRIAAVGGTYILKSFPDAEIRDLKNRYLLPAFIDSHNHLSSFGCLEHHHHHH”, the protein production result was “not failed”.

As for “MKKFQEMCQEEFEKIELMARGGQKIVFDGVHNSYGETVIKLYFQLNDPRSLREIQIERDLNLSMVPKIYETGTIEYEGTETLYIIEQKVKGTELRKVLESGKRFSLEEAVTFLEQGLEFIACIENKGIVHRDIKPENIIRADDGRIFFLDFGIARILGADSLTRTGAMMGPHTPGYAAPEQFNNLKKEIDSRADIFSLGVVTYECITGKNPFREGSINALEVLQKTETITPVQYSIKGDTQSQFMALLGAMMGKYPSRRPRTAKQAIDWLKVAKKTFVYE”, the protein production entry is “failed”.

Turning to “MKKFYFLILGIVLCGMVAQAQNSYEGHIGFGQHHVVRKGGELNVEVSLDLGAVKLAAQQMIVLTPVLRSTEGEEQQQLAPVVIAGPRRYRVLKRSLAFGTDNFEMSPMLVEKRKSGTPQTVNLHFGLPYHEWMRRAELILREEVTGCADCPVSQGDHTVITSVFDEQFTPRYELSYVTPPVEPLKQRSETHTAYLNFEVDKYVLLRNYKNNANVLADVDRIVNEIQNDSNLTVTEFRVTGYASPEGNYSRNMKLSENRALAFVGYLQNHGGVDESLLTVDWKGEDWSGLRREVAASSLIDKGAILAVIDGHTDFATRKNRLQALNGGTTYRMLLRDYYPPLRRNEYTISYVARAFNVDEAKQLIKTKPQYLSLNEMFLVANTYPKDSGEFKEVFDIAARIYPDDPVARLNTAALELENGAIDAAIVRLQKSDMPEAWNNLGIAYILKQDYKKGGEYLEKAIDAGIQAAAYNMGQLAAWLKTQE”, the protein production entry was “failed”.

Turning to “MKKGIFTALLFTVIVALYSLHLANGKCVYKSNISSLLLENIEALAADEDGSDDGEVVGGKIRCIDVGSLDCPLTHEKVKYIVRGYSL”, the protein production entry is listed as “failed”.

Take “MKKGSLAIVLGSLLASGAFYTALADGMPAKQQHNNTGESVELHFHYPIKGKQEPKNSHLVVLIEPKIEINKVIPESYQKEFEKSLFLQLSSFLERKGYSVSQFKDASEIPQDIKEKALLVLRMDGNVAILEDIVEESDALSEEKVIDMSSGYLNLNFVEPKSEDIIHSFGIDVSKIKAVIERVELRRTNSGGFVPKTFVHRIKETDHDQAIRKIMNQAYHKVMVHITKELSKKHMEHYEKVSSEMKKRK”: the protein production entry was “failed”.

Take “MKKGVLIAFEGIDGSGKSSQATLLKDWIELKRDVYLTEWNSSDWIHDIIKEAKKKDLLTPLTFSLIHATDFSDRYERYILPMLKSGFIVISDRYIYTAYARDSVRGVDIDWVKKLYSFAIKPDITFYIRVSPDIALERIKKSKRKIKPQEAGADIFPGLSPEEGFLKYQGLITEVYDKLVKDENFIVIDGTKTPKEIQIQIRKFVGELIDNSF”: the protein production result is given as “not failed”.

For “MKKIAIFGSAFNPPSLGHKSVIESLSHFDLVLLEPSIAHAWGKNMLDYPIRCKLVDAFIKDMGLSNVQRSDLEQALYQPGQSVTTYALLEKIQEIYPTADITFVIGPDNFFKFAKFYKAEEITERWTVMACPEKVKIRSTDIRNALIEGKDISTYTTPTVSELLLNEGLYRETLSGK”, the protein production result is on record as “not failed”.

“MKKIGIIGAGGIARAHATALSTIKNAELVGVYDINQQNAESFVKTFGGKSFENVDELIDASEGLIVASPNFCHKEHALQALGKHKHVLCEKPMAISLEEASIMKDTAERLSVRASMGFNYRYLSYVNILKSLIINNELGNILSIKVHFKKNSALRRKKFTWRDDANSKKTSGSLGDLGIHLIDMVWYLFESDFITESVRAKMNTNVKTKEDKQVLVDDYAEIYGQLRNKVFVNIITSKCSVPEDCGFSIEVVGHKKEFKYHTGNPHVYKLIDGLNVVDCPVPQSLLNDPPNEFYGWADSFRSELINWIASTQNDWVEIPSFSDGFRSQEVLEMFFEKDSNSQPLEHHHHHH”: the protein production entry was “not failed”.

“MKKIISLALALALSASAAELKMATTTSTDNTGLLDALKPLYEKESGNTLKWVAVGTGAALKMGEDCNADVLFVHSPKAEKEFMKKGFGVDRTPVMYNDFIIIADKSLASKFKGKNLKESLELIKNEKLTFISRGDKSGTDNKEKSLWKNLGGVPEKQSWYQQSGQGMLASIKIAEEKKGVILTDRGTYIKYEANEKGKPNLVIVNEGDDSLKNFYSVIATNPKHCKNVNYTEASKFIKWVTSDKTLNFIADFKLLNKPLFVIDAKTRKD”: the protein production result is “failed”.

Regarding “MKKILAFLLIAAGSTLFFVFLFIFLSKVFSGEILLSRYIFRIGGFELRWYSTLILMGFLISYFVARKRAKNEGINLEEFDELIFYGVIAGIVGARLYYVLFNLKYYRSLWDALKIWEGGLAIHGAVIGALLTGFLYVRLKKPSFTFLQATDLFTSVLPLGQAIGRWGNFFNYEAFGVPTNLPWKMFVPEPYRPVVYKDYSFFHPTFLYESIWDLLVFFMLSVYFKRYRKRHGEVTCLYFVLYSLGRIVIERLRVDSLMIGNIKAAQLLSAVLILLGFTGFLILRSSQEPKRAF”, the protein production entry is “failed”.

For the sequence “MKKILASMAVASVAGGTVIGTAQAQTSIAPEDTQSKQASDVVTHENRVTVNVDALRVRTGPSTSNTILGLVSKEQSVPVVDETEDWYKIKYNNTEAYVNKEYATPNHIKVSTTTLRVRTGPSTSNSILGLVGEGEILQVTGEADGWYKIKYNNRDAYVSKDYVSINKSLVKSKKQKVQASRSYTVNVSSLRVRTGPSMSHPVVSVMNKGQVVQVVGEVQDWYRVKLNEGFAYINKDYVSRGTNNTANLPQSIQTESVQQNGTYIVDAAVLRVRTGPANYHPVIGGVLKGQSLQVVDIENGWYKIKYNNRTGYVSGEFVKFLKGSSTQEQTQTKEKLEQAQQPNHEQEKQEVAQQSTREQEKQEVAQQPTREQEKQEVVQQPTREQEKQEPAQNYYVKSSSLNVRSGAGMNYEVIGVVEPNQKIQVVGQQAGWYKINYNGKTGFVGMNYLSKTKVATVEEQPPSEVGTTNENTASGFIKPAAGSYTSGFEKRGGQMHYGLDIAASGTVSVSAAADGVVTRSYYSESYGNVVFISHNMNGQTYTTVYAHLNSRSVSAGQSVKQGQQIGFMGNTGQSEGQHLHFEVHKGEWNAQKSNAVNPKLYIK”, the protein production result is listed as “failed”.

In the case of “MKKILVGIPNYNNAAYIVDTIESVLKQSYSGVDVVVFDNASTDDSVEIIENTFLNNPNVLLKKSASNVGPTMNHNRCLEYAIDNEYDYLKVLSSDDVLLPNIIQEQFELLESEPRGAFATCNMIVTDDKLTKIKDHDFLGSNTDGNAVIKKCASHSANYIGGPSNGLLRVSCIGATRFSPEYKWLSDLKFYCDLLANRPFINTGTNGFFYRRHDNTDSSHVSKIKNLQRKESIRFSGEYGGNFLTKIKIYLRDIKSRLLLEHHHHHH”, the protein production result is “failed”.

As to “MKKILVIRNDKIGDFMVCFPAFAMLKQSMPNAEITALVPSYTASLAELCPSIDNVIIDTPNKKDKTEFNRVLQAVKNAQFDAVICFVSDWYNAKLTWKSGIKHRLAPATKVFQFLYNQRLEHHHHHH”, the protein production entry is “failed”.
